Assay results: patent US20110182887A1 (AstraZeneca / MedImmune, published 2011)
Each block holds one binder with its values, some of them ahead of it.

Key:
[1] = molecular target: T1, human CD22 (hCD22) expressed on the cell surface (human, UniProt P20273 20-847); test: cell ELISA on BHK cells expressing human CD22, OD 655 nm
T1 construct: whole, on cells; One molecule is used for all cell-surface formats; also called human CD22 antigen; BHK-CD22

[2] = molecular target: T1, human CD22 (hCD22) expressed on the …; test: cell ELISA on BHK cells expressing human CD22, RHOv2D heavy chain expressed with the RKC light chain in COS cells
[3] = molecular target: T1, human CD22 (hCD22) expressed on the …; test: cell ELISA on BHK cells expressing human CD22, OD 655 nm; remark: listed apart in the source
[4] = molecular target: T1, human CD22 (hCD22) expressed on the …; test: as above; remark: listed apart in the source
[5] = molecular target: T1, human CD22 (hCD22) expressed on the …; test: as above; remark: listed apart in the source
[6] = molecular target: T1, human CD22 (hCD22) expressed on the …; test: cell ELISA on BHK cells expressing human CD22, COS-7 supernatant, OD 655 nm
[7] = molecular target: T1, human CD22 (hCD22) expressed on the …; test: as above; remark: listed apart in the source
[8] = molecular target: T1, human CD22 (hCD22) expressed on the …; test: cell ELISA on BHK cells expressing human CD22, COS-7 supernatant, goat anti-human Ig-HRP, OD 450 nm
Text: (§1) The BHK-CD22 binding assay was used to test the binding activity of the chHB227 antibody in the transiently transformed COS 7 culture supernatants. A goat anti-human Ig-HRP conjugate (Sigma Chemicals) was used to detect binding of chHB22.7 mAb while a goat anti-mouse Ig-HRP conjugate (Southern Biotechnology) was used to detect binding of the parental mouse HB22.7 mAb. The bound HRP conjugates were exposed to the substrate o-phenyldiamine (OPD) and the resulting products detected at 450 nm.

[9] = molecular target: T1, human CD22 (hCD22) expressed on the …; test: BHK-CD22 cell ELISA, COS-7 supernatant
[10] = molecular target: hCD22 (ligand immobilised on the BIAcore CM5 sensor chip) (human, UniProt P20273 20-687, limits assumed); test: SPR (BIAcore 3000), hCD22 immobilised on CM5 chip, IgG injected, 1:1 model
Protocol: Binding affinity of HB22.7 and RHOv2ACD/RKA were determined on a BIAcore 3000 instrument (BIAcore, Inc., Uppsala, Sweden). The ligand, hCD22, was prepared at 50 nM in 10 mM NaOAc, pH4 buffer. It was injected onto an EDC/NHS-activated CM5 sensor chip (BIAcore, Inc. Uppsala, Sweden) using a standard immobilization protocol. Following this, any unreacted active ester moieties were quenched using 1M Et-NH2 (ethanolamine; coupling reagents purchased from BIAcore, Inc.). A total of 535 and 689 RUs hCD22 remained bound to two sensor chip surfaces used in these experiments. Separately, a blank surface was prepared on each sensor chip using the identical protocol (minus protein). The blank surfaces were used as a reference cell in the experiments, and served to correct for both non-specific binding and some housekeeping artifacts.
For the kinetic experiments, HB22.7 and RHOv2ACD/RKA were prepared as two dilution series, starting at 22 nM and 100 nM, then diluted three- and two-fold, respectively, down to final concentrations of 0.03 nM and 0.39 nM in HBS-EP buffer (BIAcore, Inc., consisting of the following: 10 mM HEPES buffer, pH7.4, 150 mM NaCl, 3 mM EDTA, and 0.005% P20). Each concentration of IgG was then injected over both the CD22 and reference cell surfaces, which are connected in series. Between injections, surfaces were regenerated with a 1-minute injection of 3M MgCl2.

[11] = molecular target: T1, human CD22 (hCD22) expressed on the …; test: cell ELISA on BHK cells expressing human CD22, goat anti-mouse Ig-HRP, OD 450 nm
Text: as §1

[12] = molecular target: T1, human CD22 (hCD22) expressed on the …; test: flow cytometry on CHO cells transfected with human CD22, labelled secondary antibody, median fluorescence intensity
Protocol: CHO cells expressing hCD22 were prepared by transfection with a plasmid encoding human CD22 using the Lipofectamine procedure. […] Cells were incubated on ice for 20 minutes then washed and resuspended in PBS followed by addition of secondary antibody, either a goat anti-human (GAH) or GAM-F(ab)′2 anti human-RPE at a 1:1000 dilution. Cells were incubated on ice for an additional 10 minutes and binding activity was evaluated via FACS analysis on a Guava flow cytometer.

[13] = molecular target: T1, human CD22 (hCD22) expressed on the …; test: competitive cell ELISA on CD22; increasing mouse HB22.7 mixed with 250 ng/ml chHB227 (competitor); mouse HB22.7 titrated against 250 ng/ml chimeric antibody
Protocol: To confirm the binding effectiveness of the RHF+RKC humanized antibody, a competitive ELISA was performed with increasing amounts of the mouse HB22.7 antibody mixed with 250 ng/ml of chimeric or humanized antibody.

[14] = molecular target: T1, human CD22 (hCD22) expressed on the …; test: cell ELISA on BHK cells expressing human CD22, COS-7 supernatant, OD 655 nm; remark: listed apart in the source

EC50 (read off the curve) [3]: ~0.3 µg/mL | EC50 (read off the curve) [4]: ~0.3 µg/mL | EC50 (read off the curve) [5]: ~0.3 µg/mL | EC50 (read off the curve) [6]: ~0.1 µg/mL | EC50 (read off the curve) [7]: ~0.1 µg/mL | EC50 (read off the curve) [8]: ~0.1 µg/mL
B3: chimeric HB22.7 antibody chHB227 (chH + chL) (antibody, V domains shown)
VH: QVQLKESGPGLVAPSQSLSITCTVSGFSLSDYGVNWVRQIPGKGLEWLGIIWGDGRTDYNSALKSRLNISKDNSKSQVFLKMNSLKADDTARYYCARAPGNRAMEYWGQGTSVTVS
VL: SIVMTQTPKFLLVSAGDRITLTCKASQSVTNDVAWYQQKPGQSPKLLIYYASNRYTGVPDRFTGSGYGTDFTFTISTVQAEDLAVYFCQQDYRSPWTFGGGTKLEI
notes: Tested as COS-7 supernatant; also called CH+CK; fully chimeric antibody

Kd [10]: 14 nM | koff [10]: 0.00017 s⁻¹ | kon [10]: 12000 M⁻¹ s⁻¹ | EC50 (read off the curve) [11]: ~0.09 µg/mL | EC50 (read off the curve) [12]: ~0.2 ug mAb per 10e6 cells | IC50 [13]: ~4 µg/mL
B5: parental mouse monoclonal anti-CD22 antibody HB22.7 (antibody, V domains shown)
VH: QVQLKESGPGLVAPSQSLSITCTVSGFSLSDYGVNWVRQIPGKGLEWLGIIWGDGRTDYNSALKSRLNISKDNSKSQVFLKMNSLKADDTARYYCARAPGNRAMEYWGQGTSVTVS
VL: SIVMTQTPKFLLVSAGDRITLTCKASQSVTNDVAWYQQKPGQSPKLLIYYASNRYTGVPDRFTGSGYGTDFTFTISTVQAEDLAVYFCQQDYRSPWTFGGGTKLEI
notes: Mouse antibody from hybridoma ATCC HB11347; It was labelled with Alexa-fluor in some cell assays; also called mouse HB22.7; murine HB22.7

More lines, now with the values behind:

B1: HB227RHOv2ABCD + HB227RKC humanized antibody (antibody, human IgG1, V domains shown)
VH: QVQLEESGGGVVRPGRSLRLSCAASGFTFDDYGVNWIRQAPGKGLEWVTIIWGDGRTDYNSALKSRFTVSRNNSNNTLSLQMNSLTTEDTAVYYCVRAPGNRAMEYWGQGVLVTVS
VL: DIVMTQSPSSLSASVGDRVTITCKASQSVTNDVAWYQQKPGKAPKLLIYYASNRYTGVPDRFSGSGYGTDFTLTISSLQPEDFATYFCQQDYRSPWTFGGGTKVEIKR
notes: No VH back mutations; Human IgG1 kappa, COS-7 supernatant; also called RHOv2ABCD+RKC
binding result [1]: binds

B2: HB227RHOv2D + HB227RKC humanized antibody (antibody, human IgG1, V domains shown)
VH: QVQLEESGGGVVRPGRSLRLSCAASGFTLSDYGVNWIRQAPGKGLEWVGIIWGDGRTDYNSALKSRFTVSRNNSNNTLSLQMNSLTTEDTAVYYCVRAPGNRAMEYWGQGVLVTVS
VL: DIVMTQSPSSLSASVGDRVTITCKASQSVTNDVAWYQQKPGKAPKLLIYYASNRYTGVPDRFSGSGYGTDFTLTISSLQPEDFATYFCQQDYRSPWTFGGGTKVEIKR
notes: RHOv2 with the F67L back mutation removed; Human IgG1 kappa, COS-7 supernatant; also called HB227v2D
binding result [2]: binds

B4: HB227RHC heavy chain + chimeric HB22.7 light chain (chL) (antibody, human IgG1, V domains shown)
VH: QVQLQESGPALVKPTQTLTLTCTFSGFSLSDYGVNWIRQPPGKALEWLGIIWGDGRTDYNSALKSRLSISKDNSKNQVVLRMTNVDPVDTATYFCARAPGNRAMEYWGQGTVVTVSS
VL: SIVMTQTPKFLLVSAGDRITLTCKASQSVTNDVAWYQQKPGQSPKLLIYYASNRYTGVPDRFTGSGYGTDFTFTISTVQAEDLAVYFCQQDYRSPWTFGGGTKLEI
notes: Human IgG1 kappa, COS-7 supernatant; The VH entry may include the leader; also called RHC+chL
fold better binding than HB227RHB with the same chimeric light chain [9]: ~2 fold

B6: HB227RHB heavy chain + chimeric HB22.7 light chain (chL) (antibody, human IgG1, V domains shown)
VH: QVQLQESGPALVKPTQTLTLTCTFSGFSLSDYGVNWIRQPPGKALEWLAIIWGDGRTDYNSALKSRLSISKDTSKNQVVLRMTNVDPVDTATYFCARAPGNRAMEYWGQGTVVTVSS
VL: SIVMTQTPKFLLVSAGDRITLTCKASQSVTNDVAWYQQKPGQSPKLLIYYASNRYTGVPDRFTGSGYGTDFTFTISTVQAEDLAVYFCQQDYRSPWTFGGGTKLEI
notes: Human IgG1 kappa, COS-7 supernatant; The VH entry may include the leader; also called RHB+chL
binding result [14]: binds
